Among the data in patent US20260207704A1, “STAPLED PEPTIDES AND METHODS THEREOF” (priority 2022, published 2026) are IC50 values, retold here.

To fix the notation:
B1: I-48 (peptide)
peptide: Ac-[αAllylPro]D[tBuAla][B5(4)]D[Phe(3-COOH)]KAFL[PyrS2(6)][3Thi][Bta]K-NH2
modifications: not fully specified (residues 6, 7, bridges); printed as Ac-PL3-Asp-Npg-B5-Asp-3COOHF-[diphenate]-Lys-Ala-Phe-Leu-PyrS2-3Thi-BztA-Lys-NH2
B2: I-107 (peptide)
peptide: Ac-[PL3]D[Cha][B5]D[Phe(3-COOH)]AAFK[PyrS2(4)][2F3MeF][Bta][GlnR]L-NH2
modifications: staple 1-4; bridge 10-14; not fully specified (residue 10); printed as Ac-PL3-Asp-Cha-B5-Asp-3COOHF-Ala-Ala-Phe-Lys*3-PyrS2-2F3MeF-BztA-GlnR*3-Leu-NH2; reading uncertain; also: PyrS2 tied into a staple, partner not placed
B3: I-108 (peptide)
peptide: Ac-[PL3]D[tBuAla][B5]D[Phe(3-COOH)][tBuAla]AFK[PyrS2(4)][2F3MeF][Bta][GlnR]L-NH2
modifications: staple 1-4; bridge 10-14; not fully specified (residue 10); printed as Ac-PL3-Asp-Npg-B5-Asp-3COOHF-Npg-Ala-Phe-Lys*3-PyrS2-2F3MeF-BztA-GlnR*3-Leu-NH2; reading uncertain; also: PyrS2 tied into a staple, partner not placed
B4: I-45 (peptide)
peptide: Ac-[αAllylPro]D[tBuAla][B5(5)]D[Phe(3-COOH)]KAFL[PyrS2(5)][3Thi][Bta]K-NH2
modifications: not fully specified (residue 6); printed as Ac-PL3-Asp-Npg-B5-Asp-3COOHF-[isophthalate]-Lys-Ala-Phe-Leu-PyrS2-3Thi-BztA-Lys-NH2; also: isophthalate unit next to Lys7, attachment not given here, PL3/B5/PyrS2 staple links not placed
B5: I-118 (peptide)
peptide: Ac-[αAllylPro]D[tBuAla][B5″][hSer][TfeGA]AAFK[PyrS2″][2F3MeF][Bta][GlnR]A-NH2
modifications: bridge 10-14; not fully specified (bridges); reading uncertain; also: Lys*3 and GlnR*3 marked *3
B6: I-112 (peptide)
peptide: Ac-[PL3]D[tBuAla][B5]D[TfeGA]AAFK[PyrS2(4)][2F3MeF][Bta][GlnR]A-NH2
modifications: staple 1-4; bridge 10-14; reading uncertain; also: PyrS2 tied into a staple, partner not placed
B7: I-119 (peptide)
peptide: Ac-[αAllylPro]D[tBuAla][B5″][hSer][TfeGA]AAFK[PyrS2″][2F3MeF][Bta][GlnR]A-NH2
modifications: bridge 10-14; not fully specified (bridges); reading uncertain; also: Lys*3 and GlnR*3 marked *3
B8: I-22 (peptide)
peptide: Ac-[PL3]D[tBuAla][B5(4)]D[Phe(3-COOH)]AAF[TriAzLys″][PyrS2″][2F3MeF][Bta][sAla]-NH2
modifications: triazole 10-14; not fully specified (bridges); printed as Ac-PL3-Asp-Npg-B5-Asp-3COOHF-Ala-Ala-Phe-TriAzLys*3-PyrS2-2F3MeF-BztA-sAla*3-NH2; reading uncertain
B9: I-150 (peptide)
peptide: Ac-[αAllylPro]N[Cha][B5″]DT[Lys(iPr)]AF[GlnR][PyrS2″]F[Bta]K-NH2
modifications: bridge 10-14; reading uncertain; also: PL3-B5 and PyrS2 links not placed, printed as Ac-PL3-Asn-Cha-B5-Asp-Thr-iPrLys-Ala-Phe-GlnR*3-PyrS2-Phe-BztA-Lys*3-NH2
B10: I-40 (peptide)
peptide: Ac-[αAllylPro]D[tBuAla][B5(5)]D[Phe(3-COOH)]AAF[AsnR][PyrS2(5)][3Thi][Bta][Orn]-NH2
modifications: bridge 10-14; reading uncertain; also: PL3/B5/PyrS2 staple links not placed, printed as Ac-PL3-Asp-Npg-B5-Asp-3COOHF-Ala-Ala-Phe-AsnR*3-PyrS2-3Thi-BztA-Orn*3-NH2
B11: I-46 (peptide)
peptide: Ac-[αAllylPro]D[tBuAla][B5(5)]D[Phe(3-COOH)]KAFL[PyrS2(5)][3Thi][Bta]K-NH2
modifications: not fully specified (residues 6, 7, bridges); printed as Ac-PL3-Asp-Npg-B5-Asp-3COOHF-[succinate]-Lys-Ala-Phe-Leu-PyrS2-3Thi-BztA-Lys-NH2
B12: I-335 (peptide)
peptide: Ac-[αAllylPro]D[tBuAla][B5]D[Phe(3-COOH)][Aib]AF[TriAzLys(4)][PyrS2][3Thi][Bta][Abu(4-yl)]A-NH2
modifications: triazole 10-14; not fully specified (bridges); printed as Ac-PL3-Asp-Npg-B5-Asp-3COOHF-Aib-Ala-Phe-TriAzLys*3-PyrS2-3Thi-BztA-sAla*3-Ala-NH2; reading uncertain
B13: I-116 (peptide)
peptide: Ac-[PL3][hSer][tBuAla][B5]D[TfeGA]AAFK[PyrS2(4)][2F3MeF][Bta][GlnR]A-NH2
modifications: staple 1-4; bridge 10-14; reading uncertain; also: PyrS2 tied into a staple, partner not placed
B14: I-146 (peptide)
peptide: Ac-[αAllylPro][hSer][tBuAla][B5]D[Phe(3-COOH)][Nle]AFK[PyrS2″][2F3MeF″][BztA″][GlnR]LS-NH2
modifications: bridge 10-14; not fully specified (bridges); printed as Ac-PL3-Hse-Npg-B5-Asp-3COOHF-nLeu-Ala-Phe-Lys*3-PyrS2-2F3MeF-BztA-GlnR*3-Leu-Ser-NH2; reading uncertain; also: Lys10 and GlnR14 marked *3
B15: I-47 (peptide)
peptide: Ac-[αAllylPro]D[tBuAla][B5(5)]D[Phe(3-COOH)]KAFL[PyrS2(5)][3Thi][Bta]K-NH2
modifications: not fully specified (residues 6, 7, bridges); printed as Ac-PL3-Asp-Npg-B5-Asp-3COOHF-[Me2Mal]-Lys-Ala-Phe-Leu-PyrS2-3Thi-BztA-Lys-NH2
B16: I-113 (peptide)
peptide: Ac-[PL3]N[tBuAla][B5]D[TfeGA]AAFK[PyrS2(4)][2F3MeF][Bta][GlnR]A-NH2
modifications: staple 1-4; bridge 10-14; reading uncertain; also: PyrS2 tied into a staple, partner not placed
B17: I-20 (peptide)
peptide: Ac-[PL3]D[tBuAla][B5(4)]D[Phe(3-COOH)]AAF[TriAzLys″][PyrS2″][3Thi][Bta][sAla]-NH2
modifications: triazole 10-14; not fully specified (bridges); printed as Ac-PL3-Asp-Npg-B5-Asp-3COOHF-Ala-Ala-Phe-TriAzLys*3-PyrS2-3Thi-BztA-sAla*3-NH2; reading uncertain
B18: I-145 (peptide)
peptide: Ac-[αAllylPro][hSer][tBuAla][B5]D[Phe(3-COOH)]AAFK[PyrS2(5)][2F3MeF″][BztA″][GlnR]LS-NH2
modifications: bridge 10-14; not fully specified (bridges); printed as Ac-PL3-Hse-Npg-B5-Asp-3COOHF-Ala-Ala-Phe-Lys*3-PyrS2-2F3MeF-BztA-GlnR*3-Leu-Ser-NH2; reading uncertain; also: Lys10 and GlnR14 marked *3
B19: I-115 (peptide)
peptide: Ac-[PL3][hSer][tBuAla][B5]D[TfeGA]AAFK[PyrS2(4)][2F3MeF][Bta][GlnR]A-NH2
modifications: staple 1-4; bridge 10-14; reading uncertain; also: PyrS2 tied into a staple, partner not placed
B20: I-2 (peptide)
peptide: Ac-[PL3]DL[B5(4)]DDAAF[dK][PyrS2″][3Thi][Bta][GlnR]-NH2
modifications: bridge 10-14; not fully specified (bridges); printed as Ac-PL3-Asp-Leu-B5-Asp-Asp-Ala-Ala-Phe-dLys*3-PyrS2-3Thi-BztA-GlnR*3-NH2; reading uncertain
B21: I-51 (peptide)
peptide: Ac-[αAllylPro]D[tBuAla][B5(4)]D[Phe(3-COOH)]K(Suc)AFL[PyrS2(6)][Phe(2-Cl)][Bta]K-NH2
modifications: not fully specified (residue 6, bridges); printed as Ac-PL3-Asp-Npg-B5-Asp-3COOHF-[succinate]-Lys-Ala-Phe-Leu-PyrS2-2ClF-BztA-Lys-NH2

*1 amine or outer side, *2 acyl side, *3 side chain or, on linkers, in order; H or OH if unused. Bridges are numbered along the chain shown (N, C = ends). Primed or numbered codes have the meaning given here. [ ]: non-standard residue; d: D form. PyrS2(6) = (S)-3-amino-1-((pent-4-en-1-yloxy)carbonyl)pyrrolidine-3-carboxylic acid, stapled with another olefin-containing amino acid residue through the olefin group, O=C(OCCCC=[*:3])N1CC[C@@](N[*:1])(C(=O)[*:2])C1; B5(4) = 2-amino-2-(pent-4-en-1-yl)hept-6-enoic acid, stapled through each of its two olefin groups with other olefin-containing amino acid residues, O=C(C(CCCC=[*:3])(CCCC=[*:4])N[*:1])[*:2]; PyrS2″ = (S)-3-amino-1-((pent-4-en-1-yloxy)carbonyl)pyrrolidine-3-carboxylic acid (olefin stapling residue), C=CCCCOC(=O)N1CC[C@@](N[*:1])(C(=O)[*:2])C1; PyrS2 = (S)-3-amino-1-((pent-4-en-1-yloxy)carbonyl)pyrrolidine-3-carboxylic acid, olefin staple residue, C=CCCCOC(=O)N1CC[C@@](N[*:1])(C(=O)[*:2])C1; TriAzLys(4) = (S)-2-amino-5-(1H-1,2,3-triazol-1-yl)pentanoic acid, staple through triazole 4-position, O=C([C@H](CCCn1cc([*:3])nn1)N[*:1])[*:2]; TriAzLys = (S)-2-amino-5-(1H-1,2,3-triazol-1-yl)pentanoic acid, stapled through triazole 4-position, O=C([C@H](CCCn1cc([*:3])nn1)N[*:1])[*:2]; PyrS2(5) = (S)-3-amino-1-((pent-4-en-1-yloxy)carbonyl)pyrrolidine-3-carboxylic acid, C=CCCCOC(=O)N1CC[C@@](N[*:1])(C(=O)[*:2])C1; B5″ = 2-amino-2-(pent-4-en-1-yl)hept-6-enoic acid (bis-olefin stapling residue), C=CCCCC(CCCC=C)(N[*:1])C(=O)[*:2]; B5(5) = 2-amino-2-(pent-4-en-1-yl)hept-6-enoic acid (two olefin arms), C=CCCCC(CCCC=C)(N[*:1])C(=O)[*:2]; TriAzLys″ = azidolysine residue closed into triazole staple, O=C([C@H](CCCCn1cc([*:3])nn1)N[*:1])[*:2]; 2F3MeF″ = aromatic residue, Cc1cccc(C[C@H](N[*:1])C(=O)[*:2])c1F; Phe(3-COOH) = N[C@@H](Cc1cccc(C(=O)O)c1)C(=O)O; 2F3MeF = Cc1cccc(C[C@H](N[*:1])C(=O)[*:2])c1F; Abu(4-yl) = O=C([C@H](CC[*:3])N[*:1])[*:2]; Phe(2-Cl) = N[C@@H](Cc1ccccc1Cl)C(=O)O; Bta = N[C@@H](Cc1csc2ccccc12)C(=O)O; Lys(iPr) = CC(C)NCCCC[C@H](N)C(=O)O; αAllylPro = C=CC[C@@]1(C(=O)O)CCCN1; tBuAla = CC(C)(C)C[C@H](N)C(=O)O; 3Thi = N[C@@H](Cc1ccsc1)C(=O)O; Cha = N[C@@H](CC1CCCCC1)C(=O)O; Suc = O=C(CCC(=O)[*:2])[*:1]; PyrS2(4) = not defined here; hSer = N[C@@H](CCO)C(=O)O; BztA″ = aromatic residue; Nle = CCCC[C@H](N)C(=O)O; Orn = NCCC[C@H](N)C(=O)O; TfeGA = not defined here; AsnR = not defined here; GlnR = not defined here; sAla = not defined here; PL3 = not defined here; B5 = not defined here; Aib = CC(C)(N)C(=O)O

The target in the assay is beta-catenin (human). Nature of the assay: fluorescence polarization. On the technique in general: Fluorescence polarisation rises when a labelled molecule tumbles more slowly, as on binding a larger partner.
beta-catenin (human), sequence (B6V8E6 146-665 limits assumed): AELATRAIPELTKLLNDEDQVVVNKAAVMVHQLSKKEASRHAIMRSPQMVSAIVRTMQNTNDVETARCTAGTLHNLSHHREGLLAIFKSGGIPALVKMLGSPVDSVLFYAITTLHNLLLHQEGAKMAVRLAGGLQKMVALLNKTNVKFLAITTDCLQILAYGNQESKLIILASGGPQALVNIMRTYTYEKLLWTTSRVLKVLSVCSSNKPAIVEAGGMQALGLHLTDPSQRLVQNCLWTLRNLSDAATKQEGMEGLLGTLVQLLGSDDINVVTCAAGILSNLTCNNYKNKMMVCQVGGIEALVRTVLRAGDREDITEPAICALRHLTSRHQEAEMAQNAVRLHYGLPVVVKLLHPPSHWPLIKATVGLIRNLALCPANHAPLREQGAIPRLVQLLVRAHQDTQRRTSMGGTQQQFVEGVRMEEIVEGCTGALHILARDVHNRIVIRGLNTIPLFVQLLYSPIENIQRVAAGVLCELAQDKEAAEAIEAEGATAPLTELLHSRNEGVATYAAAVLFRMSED
By IC50 is commonly meant the point on the concentration scale where inhibition reaches its midpoint. The molecule B1 returned an IC50 of under 50 nM.

Take B2: the IC50 was under 50 nM.

The molecule B3 had an IC50 of under 50 nM.

Take B4: the IC50 was under 50 nM.

Regarding B5, the half-maximal inhibitory concentration (IC50) is over 1000 nM.

In turn, B6 showed an IC50 of under 50 nM.

B7 came in with an IC50 of over 1000 nM.

B8 showed an IC50 of under 50 nM.

B9 displayed a concentration for half-maximal inhibition (IC50) of over 1000 nM.

With B10, the IC50 was over 1000 nM.

Take Ac-[αAllylPro]D[tBuAla][B5″]DDAAF[TriAzLys][PyrS2″][3Thi][Bta][Abu(4-yl)]-NH2 (triazole 10-14; also: PL3-B5 and PyrS2 links not placed) [I-18]: the 50% inhibitory concentration (IC50) is under 50 nM.

Consider B11, for which the IC50 is under 50 nM.

In the case of B12, the IC50 was under 50 nM.

Take B13: the IC50 is over 1000 nM.

The molecule B14 gave an IC50 of over 1000 nM.

B15 came in with an IC50 of under 50 nM.

B16: the IC50 is under 50 nM.

B17 displayed an IC50 of under 50 nM.

With B18, the IC50 was over 1000 nM.

B19 had an IC50 of over 1000 nM.

For B20, the IC50 was under 50 nM.

For the molecule B21, the IC50 was under 50 nM.
